Among the data in PMC4571291 (2015) are Kd values, retold here.

Test [1] concerns the target T1, actin (UniProt P68135 1-377). Put plainly: ITC; second site (KD2). A general note: Isothermal titration calorimetry measures the heat released or taken up as one component is titrated into another.
For test [2], the target named is T1, actin. Put plainly: ITC; first site (KD1).
Test [3] addresses T1, actin. Put plainly: ITC.

B1: Lmod2_(ABS2) (domain or fragment)
chain: NGRNTESPAAIHPCGNPTVIEDALDKIKSNDPDTTEVNLNNIENITTQTLTRFAEALKDNTVVKTFSLANTHADDSAAMAIAEMLKVNEHITNVNVESNFITGKGILAIMRALQHNTVLTELRFHNQRHIMGSQVEMEIVKLLKENTTLLRLGYHFELPGPRMSMTSILTRNMDKQRQKRLQEQKQQE
Take B1: binding with actin [1] was put at a Kd of 1700 nM.

B2: TL2_(ABS2) (domain or fragment)
chain: VIKPTQYKPVPDEEPNSTDVEETLERIKNNDPKLEEVNLNNIRNIPIPTLKAYAEALKENSYVKKFSLANTHADDSAAMAIAEMLKVNEHITNVNVESNFITGKGILAIMRALQHNTVLTELRFHNQRHIMGSQVEMEIVKLLKENTTLLRLGYHFELPGPRMSMTSILTRNMDKQRQKRLQEQKQQE
In the case of B2, the figures for the Kd with actin [2] and in the test with actin [1] were 154 nM and 600 nM, respectively.

B3: TL1_(ABS2) (domain or fragment)
chain: VIKPTQYKPVPDEEPNSTDVEETLERIKNNDPKLEEVNLNNIRNIPIPTLKAYAEALKENSYVKKFALANTRADDHVAFAIAIMLKANKTITSLNLDSNHITGKGILAIFRALLQNNTLTELRFHNQRHICGGKTEMEIAKLLKENTTLLKLGYHFELAGPRMTVTNLLSRNMDKQRQKRLQEQRQAQ
Molecule B3 yielded a Kd with actin [1] of 130 nM. In other words, the sub-micromolar range.

B4: Tmod1_(ABS1) (domain or fragment)
chain: MSYRRELEKYRDLDEDEILGALTEEELRTLENELDELDPDNALLPAGLRQKDQTTKAPTGPFKREELLDHLEKQAKEFKDREDLVPYTGEKRGKVWVPKQKPLDPVLESVTLEPELEEALANASDAELCDIAAILGMHTLMSNQQYYQALSSSSIMNKEGLNSVIKPTQYKPVPDEEPNSTDVEETLERIKNNDPKLEEVNLNNIRNIPIPTLKAYAEALKENSYVKKFSIVGTRSNDPVAYALAEMLKENKVLKTLNVESNFISGAGILRLVEALPYNTSLVEMKIDNQSQPLGNKVEMEIVSMLEKNATLLKFGYHFTQQGPRLRASNAMMNNNDLVRKRRLADLTGPIIPKCRSGV
Regarding B4, the Kd with actin [3] was 15000 nM.

A word on the Kd: it is the concentration at which binding is half-saturated.
